Measured values reported in the supplement of paper PMC10567573.
± gives the standard deviation.

Assay: protein stability index of a GFP-peptide fusion (GPS, HEK-293T) (PSI 1-6); higher = more stable
[1] = treatment: DMSO, c terminus: a fixed tail appended
[2] = treatment: MLN4924 1 uM, 8 h, c terminus: a fixed tail appended
[3] = treatment: DMSO, c terminus: native
[4] = treatment: MLN4924 1 uM, 8 h, c terminus: native
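Further: 24-mer peptide tiles fused after GFP, lentivirally expressed, FACS-sorted into six equal bins by GFP/DsRed ratio, decoded by Illumina sequencing, PSI is the read-weighted mean bin number.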

Sequence | protein stability index [1] | protein stability index [2] | protein stability index [3] | protein stability index [4]
LVNMGISVVSYTLKDIHDDQDYLH [FLOT1] | 2.11 ± 0.24 | 2.22 ± 0.31 | – | –
LVVFTASMEIYGSAVADKLDNSRS [CTDNEP1] | 2.92 ± 0.74 | 2.26 ± 0.37 | – | –
LWCANILGYAVSTFAMVKGYFFPT [DHCR7] | 4.05 ± 0.23 | 3.83 ± 0.12 | – | –
LWFANAHLLSWFSPTIIFDNWIPL [DHCR7] | 2.92 ± 0.33 | 2.93 ± 0.16 | – | –
LWIKFFAAGELESMGFSARYNFTP [NETO1] | 2.63 ± 0.85 | 2.58 ± 0.89 | – | –
LWLRPEVHTKEQILELLVLEQFLA [ZNF396] | 2.54 ± 0.5 | 2.73 ± 0.49 | – | –
LYFKDKIFNVAIPRFHMACPTFRV [FBXO3] | 2.98 ± 0.92 | 2.65 ± 0.68 | – | –
LYGALNPQYEFKEAAGSFTSSLAQ [IRX6] | 2.64 ± 0.17 | 2.55 ± 0.27 | – | –
LYPDLSCPEGLEELLSAPPPDLGA [SPSB2] | 4.27 ± 0.14 | 4.46 ± 0.12 | – | –
MAGTGLLALRTLPGPSWVRGSGPS [ALKBH7] | 2.68 ± 0.19 | 2.88 ± 0.11 | – | –
MAKTLVFSKVKTSLGLDHCHSFIS [ACSBG2] | 2.18 ± 0.58 | 1.82 ± 0.52 | – | –
MALSNHYRSEDLLDVDTAAGGFQQ [FBXO3] | 4.03 ± 0.18 | 4.04 ± 0.13 | – | –
MCLSPDRKMEVEELSPLALGRFSL [CDC25B] | 2.57 ± 0.19 | 2.71 ± 0.24 | – | –
MCYGYGCGCGSFCRLGYGCGYEGC [KRTAP19-2] | 2.35 ± 0.23 | 2.43 ± 0.54 | – | –
MDDERYFNEMSAQGLRPRTVSSPI [CCDC6] | 4.28 ± 0.29 | 4.16 ± 0.14 | – | –
MDSRTVFGAWRCLLDATVAGGQTR [FCHSD1] | 1.92 ± 0.4 | 2.01 ± 0.33 | – | –
MECPEGQLPISSENDSTPTVSTSE [TAF7L] | 5.46 ± 0.12 | 5.59 ± 0.25 | – | –
METNGSTEGSRSRSRSLDIQPSSE [SPAG8] | 5.54 ± 0.33 | 5.35 ± 0.064 | – | –
MHLNAEGMLSYCDRYSEGIKHVLQ [CRYL1] | 2.4 ± 0.29 | 2.32 ± 0.42 | – | –
MISAAQLLDELMGRDRNLAPDEKR [LUC7L3] | 3.87 ± 0.19 | 4.11 ± 0.21 | – | –
MITVPIGLYFTTKSYIFEGALGMS [VMA21] | 2.49 ± 0.7 | 2.89 ± 0.43 | – | –
MLKEEHQIILENQKNFGLYVQEKR [RAD54B] | 2.99 ± 0.24 | 3.62 ± 0.29 | – | –

Sequence | protein stability index [1] | protein stability index [2] | protein stability index [3] | protein stability index [4]
MLLRKFAESKGTGREKPGPLDFEA [FCHO1] | 2.84 ± 0.034 | 2.86 ± 0.5 | – | –
MMEEIDRFQDPAAASISDGDCDAR [FAM219A] | 5.38 ± 0.16 | 5.42 ± 0.11 | – | –
MNALLEQKEQQERLREAAALGDIR [ANKRD40] | 4.66 ± 0.24 | 4.76 ± 0.18 | – | –
MPEYRGQGIGSKIIKKVAEVALDK [SAT2] | 3.65 ± 0.35 | 4.05 ± 0.27 | – | –
MQPESGANGTVIAEFILLGLLEAP [OR3A1] | 2.18 ± 0.24 | 2.33 ± 0.42 | – | –
MSDLLSVFLHLLLLFKLVAPVTFR [CPN1] | 3.09 ± 0.26 | 3.33 ± 0.17 | – | –
MSFLSRQQPPPPRRAGAACTLRQK [WEE1] | 3.94 ± 0.2 | 3.88 ± 0.24 | – | –
MSMNNSKQLVSPAAALLSNTTCQT [PTGFR] | 3.79 ± 0.21 | 3.99 ± 0.12 | – | –
MSSIICEGDTVSQELLDTVLVNLV [PDS5B] | 2.24 ± 0.22 | 2.14 ± 0.53 | – | –
MTEWFMCAFSRTLPWSSVLRVWDM [TBC1D10A] | 3.32 ± 0.42 | 2.84 ± 0.23 | – | –
MTSNPITWGQIKKTTQEAEKLLER [CDK11A] | 4.55 ± 0.24 | 4.31 ± 0.25 | – | –
MVFEVLGHHLLKWIIKSNYQGLPV [SRPK2] | 2.91 ± 0.33 | 3.12 ± 0.27 | – | –
MVFIAGILLNGVSGWIFFYVPSSE [P2RY14] | 2.94 ± 0.34 | 2.84 ± 0.51 | – | –
MVWNQNGKSPSITFEYTLLQPPHE [ADAMTSL2] | 2.23 ± 0.27 | 2.64 ± 0.37 | – | –
NAININELFIEISRRIPSTDANLP [RAB22A] | 2.35 ± 0.18 | 2.18 ± 0.45 | – | –
NASTLRTINIKCHVHDPHGQVIWG [FBXO39] | 2.17 ± 0.18 | 2.21 ± 0.21 | – | –
NCPWPMSCPGSSYRTVVRPTYKVM [EMID1] | 2.62 ± 0.26 | 2.47 ± 0.4 | – | –
NDPSQSEVMGEPHLMVEYKLGLL [POMP] | – | – | 4.16 ± 0.22 | 4.36 ± 0.21
NERKVAQLAEENERLKQEIERLTR [DDIT3] | 5.1 ± 0.37 | 5.18 ± 0.3 | – | –
NESHSIKAILKNISVLAFSVCFIF [SLC29A1] | 2.79 ± 0.61 | 2.54 ± 0.4 | – | –
NEVIADINCKGRSKSNLGWTPLHL [OSBPL1A] | 2.48 ± 0.38 | 2.76 ± 0.28 | – | –
NFKPRGYSECIVTVGGEERVSRKP [GAN] | 4.14 ± 0.28 | 4.32 ± 0.39 | – | –

Sequence | protein stability index [1] | protein stability index [2] | protein stability index [3] | protein stability index [4]
NGHDCWSLISLSNNTGKNLELKFV [TENT5D] | 2.51 ± 0.49 | 2.61 ± 1 | – | –
NGINLFDTAEVYAAGKAEVVLGNI [KCNAB2] | 2.89 ± 0.3 | 3 ± 0.3 | – | –
NGQLMAVGGFDGTTYLKTIEVFDP [KLHL20] | 2.93 ± 0.072 | 2.91 ± 0.45 | – | –
NGSDPRSFPLWYEEALKDEEERAQ [MAGEA10] | 5.34 ± 0.36 | 5.42 ± 0.2 | – | –
NHILECEFYLLELMDCCLIVYHPY [CCNC] | 3.12 ± 1 | 2.78 ± 0.95 | – | –
NISDLPFLAENSAFPKMALQAKQD [LCOR] | 4.42 ± 0.2 | 4.39 ± 0.2 | – | –
NIVFGTGPRVGEALVSHPEVPLIS [ALDH8A1] | 2.9 ± 0.21 | 2.83 ± 0.27 | – | –
NIWVCYASYVVFRIIYMLLITIAT [SLC19A2] | 3.41 ± 0.35 | 3.14 ± 0.88 | – | –
NKLWELCCQWLKPKMRSKEQILEL [ZNF449] | 2.62 ± 0.35 | 2.9 ± 0.56 | – | –
NKRERSKLKNLRRKQRRRERWLQK [RNF180] | 4.32 ± 0.24 | 4.49 ± 0.38 | – | –
NKTKPIWTRNPDDITQEEYGEFYK [HSP90AB1] | 4.36 ± 0.42 | 4.49 ± 0.44 | – | –
NKVKVLDAPVPDCLGVHCDFHQGL [FSD1] | 3.26 ± 0.078 | 3.43 ± 0.24 | – | –
NLASYDVCSILLGTSTLLVWVGVI [MCOLN1] | 3.08 ± 0.6 | 3.19 ± 0.7 | – | –
NLLGEAAGGQDMADSMLMQGSRGL [HDAC6] | 4.1 ± 0.34 | 4.09 ± 0.081 | – | –
NLSKSRKILRSMSRKVTTNKLLLS [VTI1B] | 2.85 ± 0.35 | 2.92 ± 0.29 | – | –
NNFDNLDFDLDLVPWESDIWDINN [ATF6] | 3.2 ± 0.21 | 3.46 ± 0.11 | – | –
NQAPSGPVASSGEFFGSASQPAVE [CLINT1] | 5.16 ± 0.24 | 5.24 ± 0.43 | – | –
NRGNSAGGLQHRVTAKTAPDVLRT [PTPRD] | 3.98 ± 0.47 | 3.81 ± 0.31 | – | –
NRILAERIAKEIQVIPLQRDDED [IMPA1] | – | – | 3.47 ± 0.1 | 3.65 ± 0.12
NSAHHCVVEVENFLFVLGGEDQWN [KLHL14] | 2.12 ± 0.27 | 2.07 ± 0.3 | – | –
NSPLHIAALNNHPDIMNLLIKSGA [FEM1C] | 2.54 ± 0.1 | 2.78 ± 0.12 | – | –
